Molecular target: cdk5_mouse Cdk5 (UniProt P49615)

Chain of Cyclin-dependent kinase 5 activator 1 (Mus musculus), P61809 D288A (P61809 whole entry D288A): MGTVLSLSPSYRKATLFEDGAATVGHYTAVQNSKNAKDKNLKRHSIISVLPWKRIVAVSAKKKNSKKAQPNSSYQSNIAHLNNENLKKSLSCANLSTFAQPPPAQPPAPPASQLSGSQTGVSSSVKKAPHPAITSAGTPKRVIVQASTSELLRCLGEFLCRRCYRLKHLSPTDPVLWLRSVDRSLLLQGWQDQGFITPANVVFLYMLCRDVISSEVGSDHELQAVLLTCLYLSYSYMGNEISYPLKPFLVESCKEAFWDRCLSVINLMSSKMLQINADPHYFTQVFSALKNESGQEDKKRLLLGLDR
Chain of Cyclin-dependent kinase 5 activator 1 (Mus musculus), P61809 L289A (P61809 whole entry L289A): as the sequence (P61809 whole entry D288A) above, with A288D, L289A counted along it

effect of a mutation on the interaction	Substance
disrupting interaction	Cyclin-dependent kinase 5 activator 1 (Mus musculus), P61809 D288A
disrupting interaction	Cyclin-dependent kinase 5 activator 1 (Mus musculus), P61809 L289A

From IntAct's records for PubMed 18325333
